In the supplement of paper PMC10724198 one finds protein stability index data, which are given here for 67 sequences.

± gives the standard deviation of the averaged measurements.

This data set concerns Saccharomyces cerevisiae. Description: protein stability index of tFT-peptide fusion (C-terminal peptide) (PSI (0-1 scale)); higher = more stable (slower turnover). The note with it: temperature: 30 C. How it is done: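 MPS profiling in S. cerevisiae of the yeast C-terminome library: the last 12 aa of each annotated ORF are fused to the C-terminus of a sfGFP-mCherry timer, after a GGGS linker. Cells are FACS-sorted into 8 mCherry/sfGFP bins and deep-sequenced. PSI runs from 0 (unstable) to 1 (stable); wild type and das1Δ backgrounds, two technical replicates each.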

The mark [1] stands for this setting: genetic background: das1 deletion.

As to LETAFEEWDYYE [MRX6 C-terminal 12 aa], the protein stability index runs as follows: under setting [1], 0.731 ± 0.016; (genetic background: wild type) 0.787 ± 0.064.

As to LFGTCLVAMLLF [SPS22 C-terminal 12 aa], the protein stability index by setting is: under setting [1], 0.461 ± 0.023; (genetic background: wild type) 0.449 ± 0.022.

LFMNAVIKTFKK [DGK1 C-terminal 12 aa]: the protein stability index under setting [1] was 0.7 ± 0.0083 and the protein stability index (genetic background: wild type) came to 0.6997 ± 0.0014.

On to LFQALKLEWEII [TEP1 C-terminal 12 aa], for which the protein stability index under setting [1] was 0.7038 ± 0.0018 and the protein stability index (genetic background: wild type) was 0.69 ± 0.037.

On to LGDIYTLTNNEL [PHO13 C-terminal 12 aa], for which the protein stability index reads like this: under setting [1], 0.701 ± 0.01; (genetic background: wild type) 0.6802 ± 0.00082.

Regarding LGDSPSQGRSIS [YPK2 C-terminal 12 aa], the protein stability index reads like this: under setting [1], 0.685 ± 0.012; (genetic background: wild type) 0.688 ± 0.024.

For LGFYYIYTLHRA [ERG9 C-terminal 12 aa], the protein stability index reads like this: under setting [1], 0.505 ± 0.045; (genetic background: wild type) 0.498 ± 0.03.

In the case of LHPFREPAKINI [YDR048C C-terminal 12 aa], the protein stability index is 0.665 ± 0.024 under setting [1] and 0.701 ± 0.054 (genetic background: wild type).

Consider LIIRNLNAEKER [YFR056C C-terminal 12 aa], for which the protein stability index by setting is: under setting [1], 0.6974 ± 0.0041; (genetic background: wild type) 0.686 ± 0.039.

As to LITMIRFVNSQK [DCG1 C-terminal 12 aa], the protein stability index is, setting by setting: under setting [1], 0.677 ± 0.044; (genetic background: wild type) 0.673 ± 0.034.

As for LKAVCPPEAGFD [VEL1 C-terminal 12 aa], the protein stability index by setting is: under setting [1], 0.7312 ± 0.0018; (genetic background: wild type) 0.772 ± 0.019.

Take LKIVEKIIASEQ [YLR419W C-terminal 12 aa]: the protein stability index is 0.683 ± 0.013 under setting [1] and 0.711 ± 0.029 (genetic background: wild type).

For LKMDKLGNYILE [RIO2 C-terminal 12 aa], the protein stability index reads like this: under setting [1], 0.717 ± 0.027; (genetic background: wild type) 0.65 ± 0.043.

On to LKYCKRRHNTPS [GCR1 C-terminal 12 aa], for which the protein stability index worked out at 0.747 ± 0.0077 under setting [1] and 0.736 ± 0.021 (genetic background: wild type).

Take LLAKKKLKPNLL [YGR293C C-terminal 12 aa]: the protein stability index under setting [1] stood at 0.714 ± 0.028 and the protein stability index (genetic background: wild type) stood at 0.7 ± 0.04.

LLASCIETTRNK [LOT6 C-terminal 12 aa]: the protein stability index by setting is: under setting [1], 0.691 ± 0.008; (genetic background: wild type) 0.667 ± 0.027.

As to LLEDIRANYSLN [YLL056C C-terminal 12 aa], the protein stability index is, setting by setting: under setting [1], 0.681 ± 0.012; (genetic background: wild type) 0.692 ± 0.028.

As for LLGFTTGKEVHL [SMF2 C-terminal 12 aa], the protein stability index runs as follows: under setting [1], 0.6939 ± 0.0046; (genetic background: wild type) 0.701 ± 0.014.

For the sequence “LLLSAFLRNLVP [YAL016C-A C-terminal 12 aa]”, the protein stability index runs as follows: under setting [1], 0.685 ± 0.026; (genetic background: wild type) 0.375 ± 0.0073.

For LLRKLSMKRPFS [APL1 C-terminal 12 aa], the protein stability index under setting [1] worked out at 0.683 ± 0.016 and the protein stability index (genetic background: wild type) was 0.682 ± 0.047.

LNIGGNLVTPLC [YSH1 C-terminal 12 aa]: the protein stability index under setting [1] turned out to be 0.719 ± 0.011 and the protein stability index (genetic background: wild type) came out at 0.671 ± 0.037.

On to LNNKDTKSVRHA [BRR6 C-terminal 12 aa], for which the protein stability index reads like this: under setting [1], 0.667 ± 0.029; (genetic background: wild type) 0.711 ± 0.026.

As for “LPFSVEPTTSRM [YFR036W-A C-terminal 12 aa]”, the protein stability index is, setting by setting: under setting [1], 0.6999 ± 0.0065; (genetic background: wild type) 0.687 ± 0.017.

Take LPGINSIFKNIF [TOD6 C-terminal 12 aa]: the protein stability index reads like this: under setting [1], 0.774 ± 0.016; (genetic background: wild type) 0.722 ± 0.063.

LPLKLTRKVHDR [RIF2 C-terminal 12 aa]: the protein stability index runs as follows: under setting [1], 0.705 ± 0.05; (genetic background: wild type) 0.713 ± 0.012.

As to LPSINTIFKDML [DOT6 C-terminal 12 aa], the protein stability index by setting is: under setting [1], 0.702 ± 0.03; (genetic background: wild type) 0.731 ± 0.059.

Regarding LQEPDRDNDDSG [NTC20 C-terminal 12 aa], the protein stability index stood at 0.701 ± 0.013 under setting [1] and 0.7 ± 0.017 (genetic background: wild type).

On to LQLFVNLGCPLS [YDR455C C-terminal 12 aa], for which the protein stability index runs as follows: under setting [1], 0.727 ± 0.028; (genetic background: wild type) 0.683 ± 0.019.

With LQNNDVTIGFAK [MUD1 C-terminal 12 aa], the protein stability index is, setting by setting: under setting [1], 0.715 ± 0.0077; (genetic background: wild type) 0.655 ± 0.02.

Consider LQPDVPPSSGRS [KEX2 C-terminal 12 aa], for which the protein stability index reads like this: under setting [1], 0.695 ± 0.033; (genetic background: wild type) 0.703 ± 0.011.

Take LQPWEGRLYLLK [IMA5 C-terminal 12 aa]: the protein stability index by setting is: under setting [1], 0.698 ± 0.048; (genetic background: wild type) 0.693 ± 0.063.

In the case of LRFEEMNSDLVQ [ROG1 C-terminal 12 aa], the protein stability index came out at 0.705 ± 0.0096 under setting [1] and 0.747 ± 0.12 (genetic background: wild type).

Turning to LRRSFAIYTLGH [MCM2 C-terminal 12 aa], the protein stability index by setting is: under setting [1], 0.647 ± 0.027; (genetic background: wild type) 0.6562 ± 0.0043.

Take LRVEWSKPKVKE [TIF35 C-terminal 12 aa]: the protein stability index stood at 0.699 ± 0.015 under setting [1] and 0.711 ± 0.044 (genetic background: wild type).

As for LSDDEEEEEEEE [RIX1 C-terminal 12 aa], the protein stability index is, setting by setting: under setting [1], 0.648 ± 0.048; (genetic background: wild type) 0.645 ± 0.033.

As for LSEEDLLDDESS [YPF1 C-terminal 12 aa], the protein stability index worked out at 0.669 ± 0.042 under setting [1] and 0.698 ± 0.0078 (genetic background: wild type).

Regarding LSGAPQVTKKQN [POM33 C-terminal 12 aa], the protein stability index by setting is: under setting [1], 0.691 ± 0.013; (genetic background: wild type) 0.674 ± 0.016.

Regarding LSHAQKEIYEFK [UTP25 C-terminal 12 aa], the protein stability index is 0.687 ± 0.011 under setting [1] and 0.691 ± 0.056 (genetic background: wild type).

In the case of LSQFSNVRYLLQ [VPS70 C-terminal 12 aa], the protein stability index runs as follows: under setting [1], 0.7367 ± 0.0022; (genetic background: wild type) 0.545 ± 0.0054.

With LSQWVSQMPFPM [LRO1 C-terminal 12 aa], the protein stability index turned out to be 0.79828 ± 0.00044 under setting [1] and 0.8015 ± 0.0025 (genetic background: wild type).

In the case of LTEMSAKISFED [AAD10 C-terminal 12 aa], the protein stability index is, setting by setting: under setting [1], 0.717 ± 0.019; (genetic background: wild type) 0.779 ± 0.011.

As to LTHQSLLATARK [KIP3 C-terminal 12 aa], the protein stability index reads like this: under setting [1], 0.6931 ± 0.0014; (genetic background: wild type) 0.6879 ± 0.00097.

Consider LTLIPILFGKLQ [YNL203C C-terminal 12 aa], for which the protein stability index under setting [1] is 0.6875 ± 0.0045 and the protein stability index (genetic background: wild type) came to 0.354 ± 0.0097.

In the case of LTSIWKTILFFK [YEL076C C-terminal 12 aa], the protein stability index worked out at 0.41 ± 0.014 under setting [1] and 0.468 ± 0.061 (genetic background: wild type).

For LTSYINVHLVYV [YNL285W C-terminal 12 aa], the protein stability index by setting is: under setting [1], 0.301 ± 0.016; (genetic background: wild type) 0.325 ± 0.0042.

As to LVAEATKKKRHT [DJP1 C-terminal 12 aa], the protein stability index by setting is: under setting [1], 0.7115 ± 0.0067; (genetic background: wild type) 0.6936 ± 0.0052.

Take LVKCASATIMLN [MIN3 C-terminal 12 aa]: the protein stability index turned out to be 0.704 ± 0.021 under setting [1] and 0.483 ± 0.022 (genetic background: wild type).

For LVKPKNWKKFRE [KRE2 C-terminal 12 aa], the protein stability index by setting is: under setting [1], 0.686 ± 0.017; (genetic background: wild type) 0.733 ± 0.022.

As to LVSYFIKVQMKL [ECM3 C-terminal 12 aa], the protein stability index was 0.487 ± 0.0087 under setting [1] and 0.443 ± 0.025 (genetic background: wild type).

As to LVYATELIGSGS [ICE2 C-terminal 12 aa], the protein stability index runs as follows: under setting [1], 0.7058 ± 0.0022; (genetic background: wild type) 0.7 ± 0.073.

Take LYEHGIKKFDDL [JIP5 C-terminal 12 aa]: the protein stability index came to 0.674 ± 0.029 under setting [1] and 0.721 ± 0.039 (genetic background: wild type).

For LYTFIVKKVKRD [GID12 C-terminal 12 aa], the protein stability index reads like this: under setting [1], 0.671 ± 0.045; (genetic background: wild type) 0.685 ± 0.024.

With MEALKEAREILG [MSH1 C-terminal 12 aa], the protein stability index is 0.7025 ± 0.0022 under setting [1] and 0.628 ± 0.019 (genetic background: wild type).

On to MFLSIQPQEARP [KAP120 C-terminal 12 aa], for which the protein stability index is 0.72 ± 0.0086 under setting [1] and 0.713 ± 0.011 (genetic background: wild type).

For the sequence MFNASSDIFQRN [YML083C C-terminal 12 aa], the protein stability index by setting is: under setting [1], 0.703 ± 0.016; (genetic background: wild type) 0.7014 ± 0.0067.

Turning to MKEKLKHSRKYM [SHY1 C-terminal 12 aa], the protein stability index came to 0.7121 ± 0.0039 under setting [1] and 0.6685 ± 0.0027 (genetic background: wild type).

As to MKGYGFEVPSAN [COX17 C-terminal 12 aa], the protein stability index was found to be 0.6984 ± 0.0041 under setting [1] and 0.663 ± 0.0067 (genetic background: wild type).

With MKLFEENKKEEE [PET111 C-terminal 12 aa], the protein stability index amounted to 0.722 ± 0.014 under setting [1] and 0.684 ± 0.035 (genetic background: wild type).

Consider MLAKIHKLNNKA [RFC4 C-terminal 12 aa], for which the protein stability index was 0.7026 ± 0.0053 under setting [1] and 0.704 ± 0.066 (genetic background: wild type).

Consider MLKFLAVVFFLL [YGL218W C-terminal 12 aa], for which the protein stability index reads like this: under setting [1], 0.392 ± 0.018; (genetic background: wild type) 0.217 ± 0.011.

For MLNQQQQQQQQS [NRD1 C-terminal 12 aa], the protein stability index stood at 0.702 ± 0.016 under setting [1] and 0.739 ± 0.017 (genetic background: wild type).

For the sequence MNNLFNPHSHDS [GTA1 C-terminal 12 aa], the protein stability index amounted to 0.7104 ± 0.0014 under setting [1] and 0.722 ± 0.042 (genetic background: wild type).

MQHRGWSSLMSL [YJR146W C-terminal 12 aa]: the protein stability index was determined as 0.7031 ± 0.0016 under setting [1] and 0.6548 ± 0.0047 (genetic background: wild type).

As to MSSTKKVRFVML [RMD5 C-terminal 12 aa], the protein stability index amounted to 0.696 ± 0.035 under setting [1] and 0.642 ± 0.035 (genetic background: wild type).

For MTSLDICALGIK [RVS161 C-terminal 12 aa], the protein stability index stood at 0.689 ± 0.012 under setting [1] and 0.675 ± 0.046 (genetic background: wild type).

Sequence NADDPSYYHYLS [CUL3 C-terminal 12 aa] gave a protein stability index under setting [1] of 0.7059 ± 0.0024 and a protein stability index (genetic background: wild type) of 0.68 ± 0.01.

On to NASEIYVKRKTG [DDL1 C-terminal 12 aa], for which the protein stability index came to 0.708 ± 0.041 under setting [1] and 0.204 ± 0.03 (genetic background: wild type).
